Test [1] deals with T1, Full-length human CD96 on CHO-S cells (human, UniProt P40200 22-585).
T1 construct: also called CD96-CHOs; hCD96-CHOs
T1 sequence: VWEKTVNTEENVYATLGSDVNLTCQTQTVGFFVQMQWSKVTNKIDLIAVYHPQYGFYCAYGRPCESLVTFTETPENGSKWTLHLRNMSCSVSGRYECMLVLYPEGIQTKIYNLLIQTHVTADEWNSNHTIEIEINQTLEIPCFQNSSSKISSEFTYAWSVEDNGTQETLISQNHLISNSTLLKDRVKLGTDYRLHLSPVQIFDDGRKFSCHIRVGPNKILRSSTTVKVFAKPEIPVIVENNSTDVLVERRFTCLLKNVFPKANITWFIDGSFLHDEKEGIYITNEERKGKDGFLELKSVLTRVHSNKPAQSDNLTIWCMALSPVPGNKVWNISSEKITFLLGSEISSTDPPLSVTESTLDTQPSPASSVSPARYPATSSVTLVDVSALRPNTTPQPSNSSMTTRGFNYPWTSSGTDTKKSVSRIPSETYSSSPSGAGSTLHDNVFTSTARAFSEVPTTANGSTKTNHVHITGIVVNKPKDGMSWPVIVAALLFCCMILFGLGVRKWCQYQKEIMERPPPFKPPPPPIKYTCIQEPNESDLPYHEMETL
Nature of the test: cell ELISA, fixed CD96-overexpressing CHO-S cells. The method in brief: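 EC50 was derived from 450 nm absorbance after TMB development (10-25 min, stopped with 1M H₂SO₄). Before that, antibody concentration series bound for 2 h at 37 °C to fixed, milk-blocked CHO-S cells overexpressing full-length human CD96, seeded at 9×10⁴/well.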

For test [2], the target named is T2, CD96 extracellular region with His tag (CD96-His) (human, UniProt P40200 22-519).
T2 construct: also called CD96-ECD-His; Bio-CD96-His (biotin-labelled form)
T2 sequence: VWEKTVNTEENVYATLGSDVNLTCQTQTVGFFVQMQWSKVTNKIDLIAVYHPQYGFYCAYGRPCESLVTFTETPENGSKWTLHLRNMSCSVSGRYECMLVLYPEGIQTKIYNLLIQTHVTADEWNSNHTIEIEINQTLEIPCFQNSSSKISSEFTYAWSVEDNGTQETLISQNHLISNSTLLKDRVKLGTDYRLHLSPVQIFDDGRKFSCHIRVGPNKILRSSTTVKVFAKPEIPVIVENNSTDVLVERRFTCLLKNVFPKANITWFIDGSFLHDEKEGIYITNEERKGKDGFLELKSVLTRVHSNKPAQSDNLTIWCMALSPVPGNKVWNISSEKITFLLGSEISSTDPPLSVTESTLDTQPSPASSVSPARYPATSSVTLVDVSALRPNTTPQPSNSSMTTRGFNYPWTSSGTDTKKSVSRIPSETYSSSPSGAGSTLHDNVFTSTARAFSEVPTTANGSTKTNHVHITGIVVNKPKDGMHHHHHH
Description: SPR (Biacore), antibody captured, CD96-ECD-His as mobile phase. The text has this: Protein A biosensor chip was used to capture antibodies to be tested, then CD96 antigen was flowed on the surface of the chip, and real time reaction signal was detected by Biacore to obtain the binding and dissociation curve. After the dissociation of each experimental cycle was completed, the biosensor chip was washed and regenerated with a glycine-hydrochloric acid regeneration solution (pH 1.5).

Test [3] addresses T2, CD96 extracellular region with His tag …. Description: ELISA, CD96-His coated. The procedure, abridged:
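Hybridoma-purified or humanized antibodies were titrated onto wells coated with 2 μg/ml His-tagged human CD96 and incubated 1 h at 37 °C after milk blocking. Binding was detected by TMB absorbance at 450 nm, and EC50 values were calculated.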

B1: h1719-006 (antibody, V domains shown)
VH: EVTLKESGPVLVKPTETLTLTCTVSGFSLSSYGVSWVRQPPGKGLEWLGVIWGDGNTNYHSVLISRLTISKDTSKSQVVLTLTNMDPVDTATYYCAKNNYYGSRYGYPMDYWGQGTTVTVSS
VL: DIQMTQSPSSVSASVGDRVTITCKATQDVGTAVAWYQQKPGKSPKLLIYWASTRHTGVPERFSGSGSGTDFTLTISSLQPEDFATYFCQQYGSSVLTFGGGTKVEIK
notes: also called M719-006
With B1, the results for the EC50 in test [1] and in test [3] were 0.016 nM and 0.083 nM, respectively. Besides, the Kd in test [2] came to 13.1 nM.

B2: h1719-014 (antibody, V domains shown)
VH: EVTLKESGPVLVKPTETLTLTCTVSGFSLSSYGVSWVRQPPGKGLEWLGVIWGDGNTNYHSVLISRLTISKDTSKSQVVLTLTNMDPVDTATYYCAKNYYYGSRYGYPLDYWGQGTTVTVSS
VL: DIQMTQSPSSVSASVGDRVTITCKATQDVGTAVAWYQQKPGKSPKLLIYWASTRHTGVPERFSGSGSGTDFTLTISSLQPEDFATYFCQQYGSSVLTFGGGTKVEIK
notes: Only variable regions are tied to this name; also called M719-014
For the molecule B2, the values for the EC50 in test [1] and in test [3] were 0.02 nM and 0.091 nM, respectively. In test [2], this molecule came in with a Kd of 14.9 nM.

B3: ch1722 (antibody, human IgG4 S228P, kappa, V domains shown)
VH: QVQLQQPGAELVKPGTSVKLSCKASGNTFIDYWMHWVKQRPGQGLEWIGMLHPNSGTTSFNEKFKIKTTLTIDKSSSTAYMQLSSLTSEDSAIYYCASDYSGPFAYWGQGTLVTVSA
VL: QIVLTQSPGIMSAFPGEKVTMTCSASSSVNYIHWYQQKSGTSPKRWIFDTSKLASGVPARFSGSGSGTSYSLTISSMEAEDAATYYCQQWRSNPLTFGAGTKLELKR
notes: also called chi722; chimeric antibody corresponding to m1722
Take B3: the EC50 worked out at 0.043 nM in test [1] and 0.094 nM in test [3]. In test [2], this molecule had a Kd of 1.05 nM.

B4: ch1721 (antibody, human IgG4 S228P, kappa, V domains shown)
VH: QVQLKESGPGLVAPSQSLSITCTVSGFSLISYGVNWVRQPPGKGLEWLGVIWGDGSTNYHSALISRLSISKDDSKSQVFLNLNSLQTDDTATYYCAKNYFYGSRYGYAMDSWGQGISVTVSS
VL: DIQMTQSPASLSAAVGETVTITCRASENIYSSLAWYQQKQGKSPQLLVYNAKTLIETVASRFSGSGSGTQYSLKINSLQPEDFGSFYCQHHYGTPYTFGGGTKLEIKR
notes: also called chimeric antibody corresponding to m1721
In the case of B4, the results for the EC50 in test [1] and in test [3] were 0.036 nM and 0.075 nM, respectively. This molecule gave a Kd in test [2] of 2.28 nM.

The values above are taken from patent US20200347130A1 (JIANGSU HENGRUI MEDICINE, published 2020).
